# Results taken from patent US20040082509.
# T1: L-TAT-IB1 peptide
# T1 chain: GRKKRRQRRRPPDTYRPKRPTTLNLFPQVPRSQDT
# T2: D-TAT-IB1 peptide
# T2 chain: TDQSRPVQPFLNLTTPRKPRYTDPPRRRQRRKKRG
# T3: L-TAT-IB2 peptide
# T3 chain: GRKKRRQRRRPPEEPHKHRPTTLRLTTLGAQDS
# T4: D-TAT-JNKI1 (i.e., D-TAT-JBD20)
# T4 chain: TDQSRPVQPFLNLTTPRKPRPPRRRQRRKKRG
# T5: L-TAT-JNKI1 (i.e., L-TAT-JBD20)
# T5 chain: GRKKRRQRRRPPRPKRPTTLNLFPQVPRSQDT
# B1: recombinant nonactivated JNK3 (protein)
# chain: MSLHFLYYCSEPTLDVKIAFCQGFDKQVDVSYIAKHYNMSKSKVDNQFYSVEVGDSTFTVLKRYQNLKPIGSGAQGIVCAAYDAVLDRNVAIKKLSRPFQNQTHAKRAYRELVLMKCVNHKNIISLLNVFTPQKTLEEFQDVYLVMELMDANLCQVIQMELDHERMSYLLYQMLCGIKHLHSAGIIHRDLKPSNIVVKSDCTLKILDFGLARTAGTSFMMTPYVVTRYYRAPEVILGMGYKENVDIWSVGCIMGEMVRHKILFPGRDYIDQWNKVIEQLGTPCPEFMKKLQPTVRNYVENRPKYAGLTFPKLFPDSLFPADSEHNKLKASQARDLLSKMLVIDPAKRISVDDALQHPYINVWYDPAEVEAPPPQIYDKQLDEREHTIEEWKELIYKEVMNSEEKTKNGVVKGQPSPSGAAVNSSESLPPSSSVNDISSMSTDQTLASDTDSSLEASAGPLGCCR
# B2: recombinant JNK1α1 (protein)
# chain: MSRSKRDNNFYSVEIGDSTFTVLKRYQNLKPIGSGAQGIVCAAYDAILERNVAIKKLSRPFQNQTHAKRAYRELVLMKCVNHKNIIGLLNVFTPQKSLEEFQDVYIVMELMDANLCQVIQMELDHERMSYLLYQMLCGIKHLHSAGIIHRDLKPSNIVVKSDCTLKILDFGLARTAGTSFMMTPYVVTRYYRAPEVILGMGYKENVDLWSVGCIMGEMVCHKILFPGRDYIDQWNKVIEQLGTPCPEFMKKLQPTVRTYVENRPKYAGYSFEKLFPDVLFPADSEHNKLKASQARDLLSKMLVIDASKRISVDEALQHPYINVWYDPSEAEAPPPKIPDKQLDEREHTIEEWKELIYKEVMDLEERTKNGVIRGQPSPLAQVQQ
# B3: recombinant nonactivated JNK2 (protein)
# chain: MSDSKCDSQFYSVQVADSTFTVLKRYQQLKPIGSGAQGIVCAAFDTVLGINVAVKKLSRPFQNQTHAKRAYRELVLLKCVNHKNIISLLNVFTPQKTLEEFQDVYLVMELMDANLCQVIHMELDHERMSYLLYQMLCGIKHLHSAGIIHRDLKPSNIVVKSDCTLKILDFGLARTACTNFMMTPYVVTRYYRAPEVILGMGYKENVDIWSVGCIMGELVKGCVIFQGTDHIDQWNKVIEQLGTPSAEFMKKLQPTVRNYVENRPKYPGIKFEELFPDWIFPSESERDKIKTSQARDLLSKMLVIDPDKRISVDEALRHPYITVWYDPAEAEAPPPQIYDAQLEEREHAIEEWKELIYKEVMDWEERSKNGVVKDQPSDAAVSSNATPSQSSSINDISSMSTEQTLASDTDSSLDASTGPLEGCR
# B4: MKK4 kinase (protein)
# chain: MAAPSPSGGGGSGGGSGSGTPGPVGSPAPGHPAVSSMQGKRKALKLNFANPPFKSTARFTLNPNPTGVQNPHIERLRTHSIESSGKLKISPEQHWDFTAEDLKDLGEIGRGAYGSVNKMVHKPSGQIMAVKRIRSTVDEKEQKQLLMDLDVVMRSSDCPYIVQFYGALFREGDCWICMELMSTSFDKFYKYVYSVLDDVIPEEILGKITLATVKALNHLKENLKIIHRDIKPSNILLDRSGNIKLCDFGISGQLVDSIAKTRDAGCRPYMAPERIDPSASRQGYDVRSDVWSLGITLYELATGRFPYPKWNSVFDQLTQVVKGDPPQLSNSEEREFSPSFINFVNLCLTKDESKRPKYKELLKHPFILMYEERAVEVACYVCKILDQMPATPSSPMYVD
# B5: recombinant nonactivated JNK1 (protein)
# chain: MSRSKRDNNFYSVEIGDSTFTVLKRYQNLKPIGSGAQGIVCAAYDAILERNVAIKKLSRPFQNQTHAKRAYRELVLMKCVNHKNIIGLLNVFTPQKSLEEFQDVYIVMELMDANLCQVIQMELDHERMSYLLYQMLCGIKHLHSAGIIHRDLKPSNIVVKSDCTLKILDFGLARTAGTSFMMTPYVVTRYYRAPEVILGMGYKENVDLWSVGCIMGEMVCHKILFPGRDYIDQWNKVIEQLGTPCPEFMKKLQPTVRTYVENRPKYAGYSFEKLFPDVLFPADSEHNKLKASQARDLLSKMLVIDASKRISVDEALQHPYINVWYDPSEAEAPPPKIPDKQLDEREHTIEEWKELIYKEVMDLEERTKNGVIRGQPSPLGAAVINGSQHPSSSSSVNDVSSMSTDPTLASDTDSSLEAAAGPLGCCR
# B6: MKK7 kinase (protein)
# chain: MAASSLEQKLSRLEAKLKQENREARRRIDLNLDISPQRPRPTLQLPLANDGGSRSPSSESSPQHPTPPARPRHMLGLPSTLFTPRSMESIEIDQKLQEIMKQTGYLTIGGQRYQAEINDLENLGEMGSGTCGQVWKMRFRKTGHVIAVKQMRRSGNKEENKRILMDLDVVLKSHDCPYIVQCFGTFITNTDVFIAMELMGTCAEKLKKRMQGPIPERILGKMTVAIVKALYYLKEKHGVIHRDVKPSNILLDERGQIKLCDFGISGRLVDSKAKTRSAGCAAYMAPERIDPPDPTKPDYDIRADVWSLGISLVELATGQFPYKNCKTDFEVLTKVLQEEPPLLPGHMGFSGDFQSFVKDCLTKDHRKRPKYNKLLEHSFIKRYETLEVDVASWFKDVMAKTESPRTSGVLSQPHLPFFR
# What was measured:
# L-TAT-IB1 peptide = biological target: T1, L-TAT-IB1 peptide
# D-TAT-IB1 peptide = biological target: T2, D-TAT-IB1 peptide
# L-TAT-IB2 peptide = biological target: T3, L-TAT-IB2 peptide
# [1] = biological target: T4, D-TAT-JNKI1 (i.e., D-TAT-JBD20)
# [2] = biological target: T5, L-TAT-JNKI1 (i.e., L-TAT-JBD20)
protein,measurement,setting,value
B1,"phosphorylation of Elk1 by recombinant JNK3, solid phase kinase assay",L-TAT-IB1 peptide,a marked exception was the absence of TAT-IB inhibition of JNK3 phosphorylation of Elk1
same,"phosphorylation of c-Jun and ATF2 by recombinant JNK3, solid phase kinase assay (peptide 0-25 µM)",L-TAT-IB1 peptide,"Nearly complete inhibition of c-Jun, ATF2 and Elk1 phosphorylation by JNKs was observed at TAT-IB peptide doses as low as 2.5 µM"
same,"GST-Jun (a.a. 1-73) phosphorylation by recombinant JNK3, fold less efficient than L-TAT-IB1 (0-250 µM dosage study)",D-TAT-IB1 peptide,approximately 10-20 fold less efficiently than L-TAT-IB1
same,"phosphorylation of Elk1 by recombinant JNK3, solid phase kinase assay",L-TAT-IB2 peptide,a marked exception was the absence of TAT-IB inhibition of JNK3 phosphorylation of Elk1
same,"phosphorylation of c-Jun and ATF2 by recombinant JNK3, solid phase kinase assay (peptide 0-25 µM)",L-TAT-IB2 peptide,"Nearly complete inhibition of c-Jun, ATF2 and Elk1 phosphorylation by JNKs was observed at TAT-IB peptide doses as low as 2.5 µM"
B2,"in vitro phosphorylation of GST-Jun and GST-Elk1 by JNK1α1, kinase assay",[1],their ability to prevent the phosphorylation in vitro of known JNK targets c-Jun and Elk1 using JNK1α1
same,"in vitro phosphorylation of GST-Jun and GST-Elk1 by JNK1α1, kinase assay",[2],their ability to prevent the phosphorylation in vitro of known JNK targets c-Jun and Elk1 using JNK1α1
B3,"phosphorylation of c-Jun, ATF2 and Elk1 by recombinant JNK2, solid phase kinase assay (peptide 0-25 µM)",L-TAT-IB1 peptide,"Nearly complete inhibition of c-Jun, ATF2 and Elk1 phosphorylation by JNKs was observed at TAT-IB peptide doses as low as 2.5 µM"
same,"GST-Jun (a.a. 1-73) phosphorylation by recombinant JNK2, fold less efficient than L-TAT-IB1 (0-250 µM dosage study)",D-TAT-IB1 peptide,approximately 10-20 fold less efficiently than L-TAT-IB1
same,"phosphorylation of c-Jun, ATF2 and Elk1 by recombinant JNK2, solid phase kinase assay (peptide 0-25 µM)",L-TAT-IB2 peptide,"Nearly complete inhibition of c-Jun, ATF2 and Elk1 phosphorylation by JNKs was observed at TAT-IB peptide doses as low as 2.5 µM"
B4,"kinase activity towards its substrate, panel of 40 kinases (10 µM peptides, 10 µM ATP)",[1],the JNKI peptides had an affect on the JNKs and MKK4 and MKK7 kinases
same,"kinase activity towards its substrate, panel of 40 kinases (10 µM peptides, 10 µM ATP)",[2],the JNKI peptides had an affect on the JNKs and MKK4 and MKK7 kinases
B5,"phosphorylation of c-Jun, ATF2 and Elk1 by recombinant JNK1, solid phase kinase assay (peptide 0-25 µM)",L-TAT-IB1 peptide,"Nearly complete inhibition of c-Jun, ATF2 and Elk1 phosphorylation by JNKs was observed at TAT-IB peptide doses as low as 2.5 µM"
same,"GST-Jun (a.a. 1-73) phosphorylation by recombinant JNK1, fold less efficient than L-TAT-IB1 (0-250 µM dosage study)",D-TAT-IB1 peptide,approximately 10-20 fold less efficiently than L-TAT-IB1
same,"phosphorylation of c-Jun, ATF2 and Elk1 by recombinant JNK1, solid phase kinase assay (peptide 0-25 µM)",L-TAT-IB2 peptide,"Nearly complete inhibition of c-Jun, ATF2 and Elk1 phosphorylation by JNKs was observed at TAT-IB peptide doses as low as 2.5 µM"
B6,"kinase activity towards its substrate, panel of 40 kinases (10 µM peptides, 10 µM ATP)",[1],the JNKI peptides had an affect on the JNKs and MKK4 and MKK7 kinases
same,"kinase activity towards its substrate, panel of 40 kinases (10 µM peptides, 10 µM ATP)",[2],the JNKI peptides had an affect on the JNKs and MKK4 and MKK7 kinases
